Data from US7413903B2, “Methods of regulating differentiation in stem cells” (ES Cell International PTE Ltd., priority 2002, dated 2008).

Tested on: hES cells
Test: GCTM-2 quantification (alkaline phosphatase-coupled secondary antibody, OD 405 nm)
Type: cell-based, human
Source text: hES-3 cells plated with MEF, were fixed in ethanol and immunostained with GCTM-2 and then with an alkaline phosphatase-coupled secondary antibody (Dako). The activity of alkaline phosphatase was detected by adding a solution of 4-nitrophenyl phosphate (Roche, Mannheim, Germany), followed by reading the optical density (OD) at 405 nm. In order to validate the technique as a relevant indicator of the proportion of GCTM-2 positive cells, standard curves were done with the teratocarcinoma cell line GCT27C4, known to express GCTM-2.
Cells were fixed in 100% ethanol and immunostained with GCTM-2 followed by alkaline phosphatase-coupled secondary antibodies (Dako). Alkaline phosphatase activity was detected by adding a solution of 4-nitrophenyl phosphate (Roche), and the concentration of the reaction product was determined by reading the optical density (OD) at 405 nm. In order to validate the technique as an accurate indicator of the proportion of GCTM-2 positive cells, standard curves were carried out with the embryonal carcinoma cell line GCT27C4, known to express GCTM-2 ^20.

B1: PDGF-BB: Human platelet-derived growth factor isoform BB (protein, UniProt P01127 82-190, looked up)
Platelet-derived growth …: SLGSLTIAEPAMIAECKTRTEVFEISRRLIDRTNANFLVWPPCVEVQRCSGCCNNRNVQCRPTQVQLRPVQVRKIEIVRKKPIFKKATVTLEDHLACKCETVAAARPVT
GCTM2 levels, PDGF isoform added with S1P (Example 1, isoform added with S1P): 182.0±26.0 % of control
GCTM2 expression, PDGF isoform with S1P (Example 2, 2 weeks, isoform 20 ng/ml together with S1P): 294.3±77.3 % of control
